# In patent US20230265151A1, “GIP/GLP1 CO-AGONIST COMPOUNDS” (priority 2020, published 2023):
# Positions count from the first letter of the chain named.
# T1: human GIP receptor (human, UniProt P48546 22-466)
# T1 sequence (looked up): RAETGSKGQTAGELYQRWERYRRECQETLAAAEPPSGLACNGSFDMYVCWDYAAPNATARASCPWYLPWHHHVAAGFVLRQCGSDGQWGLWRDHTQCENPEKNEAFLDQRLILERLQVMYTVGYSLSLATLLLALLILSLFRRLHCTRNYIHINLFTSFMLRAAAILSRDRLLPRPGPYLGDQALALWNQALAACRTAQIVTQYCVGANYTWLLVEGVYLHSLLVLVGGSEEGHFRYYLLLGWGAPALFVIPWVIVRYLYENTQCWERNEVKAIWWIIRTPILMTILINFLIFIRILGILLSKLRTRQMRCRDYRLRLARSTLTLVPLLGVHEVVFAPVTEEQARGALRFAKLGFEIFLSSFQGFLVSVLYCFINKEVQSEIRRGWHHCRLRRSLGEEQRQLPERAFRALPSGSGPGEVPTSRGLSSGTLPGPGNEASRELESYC
# B1: Example 19 (peptide)
# peptide: YXEGTXTSDXSIXLDXKAQXEFIXXLIEGGPSSGAPPPSK
# modifications: Aib2, αMeF(2F)6, 4Pal10, αMeL13, Orn16, Aib20, D-Glu24, αMeY25, K17 and K40: K(AEEA2-(γ-Glu)-CO-(CH2)12-CO2H), C-terminal NH2
# B2: Example 25 (peptide)
# peptide: B1 peptide
# modifications: Aib2, αMeF(2F)6, 4Pal10, αMeL13, Orn16, Aib20, D-Glu24, αMeY25, K17 and K40: K(AEEA2-(γ-Glu)-CO-(CH2)14-CH3), C-terminal NH2
# B3: Example 20 (peptide)
# peptide: YXEGTXTSDXSIXLDXIAQXEFIXXLIKGGKSSGAPPPS
# modifications: Aib2, αMeF(2F)6, 4Pal10, αMeL13, Orn16, Aib20, D-Glu24, αMeY25, K28 and K31: K(AEEA2-(γ-Glu)-CO-(CH2)12-CO2H), C-terminal NH2
# B4: Example 22 (peptide)
# peptide: B3 peptide with I17K, X24K, K28E, K31P
# modifications: Aib2, αMeF(2F)6, 4Pal10, αMeL13, Orn16, Aib20, αMeY25, K17 and K24: K(AEEA2-(γ-Glu)-CO-(CH2)14-CH3), C-terminal NH2
# B5: Example 31 (peptide)
# peptide: B3 peptide with I17K, K28E
# modifications: Aib2, αMeF(2F)6, 4Pal10, αMeL13, Orn16, Aib20, D-Glu24, αMeY25, K17 and K31: K(AEEA3-(γ-Glu)-CO-(CH2)14-CH3), C-terminal NH2
# B6: Example 10 (peptide)
# peptide: B3 peptide with I17K, K28E
# modifications: Aib2, αMeF(2F)6, 4Pal10, αMeL13, Orn16, Aib20, D-Glu24, αMeY25, K17 and K31: K(AEEA2-(10-(4-carboxyphenoxy)decanoyl)), C-terminal NH2
# B7: Example 26 (peptide)
# peptide: B3 peptide
# modifications: Aib2, αMeF(2F)6, 4Pal10, αMeL13, Orn16, Aib20, D-Glu24, αMeY25, K28 and K31: K(AEEA2-(γ-Glu)-CO-(CH2)14-CH3), C-terminal NH2
# B8: Example 30 (peptide)
# peptide: B3 peptide with I17K, K28E
# modifications: Aib2, αMeF(2F)6, 4Pal10, αMeL13, Orn16, Aib20, D-Glu24, αMeY25, K17 and K31: K(AEEA3-(γ-Glu)-CO-(CH2)12-CO2H), C-terminal NH2
# B9: Example 21 (peptide)
# peptide: B3 peptide with I17K, E21K, K28E, K31P
# modifications: Aib2, αMeF(2F)6, 4Pal10, αMeL13, Orn16, Aib20, D-Glu24, αMeY25, K17 and K21: K(AEEA2-(γ-Glu)-CO-(CH2)14-CH3), C-terminal NH2
# B10: Example 28 (peptide)
# peptide: B3 peptide with I12K, I17K, K28E, K31P
# modifications: Aib2, αMeF(2F)6, 4Pal10, αMeL13, Orn16, Aib20, D-Glu24, αMeY25, K12 and K17: K(AEEA2-(γ-Glu)-CO-(CH2)12-CO2H), C-terminal NH2
# B11: Example 36 (peptide)
# peptide: B3 peptide with I17K, K28E
# modifications: Aib2, αMeF(2F)6, 4Pal10, αMeL13, Orn16, Aib20, D-Glu24, αMeY25, K17 and K31: K((εK)-AEEA-(γ-Glu)-CO-(CH2)12-CO2H), C-terminal NH2
# B12: Example 35 (peptide)
# peptide: B3 peptide with I17K, K28E
# modifications: Aib2, αMeF(2F)6, 4Pal10, αMeL13, Orn16, Aib20, D-Glu24, αMeY25, K17 and K31: K(AEEA-(εK)-(γ-Glu)-CO-(CH2)12-CO2H), C-terminal NH2
# B13: Example 34 (peptide)
# peptide: B3 peptide with I17K, K28E
# modifications: Aib2, αMeF(2F)6, 4Pal10, αMeL13, Orn16, Aib20, D-Glu24, αMeY25, K17 and K31: K(AEEA2-(εK)-(γ-Glu)-CO-(CH2)12-CO2H), C-terminal NH2
# B14: Example 24 (peptide)
# peptide: B3 peptide with I17K, K28E, G30K, K31P
# modifications: Aib2, αMeF(2F)6, 4Pal10, αMeL13, Orn16, Aib20, D-Glu24, αMeY25, K17 and K30: K(AEEA2-(γ-Glu)-CO-(CH2)14-CH3), C-terminal NH2
# B15: Example 33 (peptide)
# peptide: B3 peptide with I17K, K28E
# modifications: Aib2, αMeF(2F)6, 4Pal10, αMeL13, Orn16, Aib20, D-Glu24, αMeY25, K17 and K31: K(AEEA2-(εK)-CO-(CH2)12-CO2H), C-terminal NH2
# Target: T1, human GIP receptor
# Assay: cell-based or functional assay
Binder,"EC50, cAMP","Emax, cAMP"
B1,0.0158 nM,96.6%
B2,0.00243 nM,–
B3,0.00985 nM,98.8%
B4,0.00656 nM,–
B5,0.00157 nM,–
B6,0.0106 nM,–
B7,0.0218 nM,–
B8,0.0175 nM,–
B9,0.00347 nM,–
B10,0.0554 nM,95.4%
B11,0.0185 nM,–
B12,0.0162 nM,–
B13,0.0148 nM,–
B14,0.00266 nM,–
B15,0.00957 nM,–

# Target: human GLP-1 receptor (human, UniProt P43220 24-463)
# Assay: cell-based or functional assay
row,Binder,"EC50, cAMP"
1,B1,1.34 nM
2,B2,0.00426 nM
3,B3,0.552 nM
4,B4,0.0153 nM
5,B7,0.0711 nM
6,B8,2.27 nM
7,B9,0.00655 nM
8,B10,2.65 nM
9,B11,0.536 nM
10,B12,0.612 nM
11,B13,1 nM
12,B14,0.0063 nM
13,B15,0.37 nM

# Target: human glucagon receptor (human, UniProt P47871 26-477)
# Assay: cell-based or functional assay
row,Binder,"EC50, cAMP"
1,B1,> 9950 nM
2,B2,> 9950 nM
3,B3,> 9950 nM
4,B4,> 9950 nM
5,B5,> 9950 nM
6,B6,> 9950 nM
7,B7,> 9950 nM
8,B8,> 9950 nM
9,B9,> 9950 nM
10,B10,> 9950 nM
11,B11,> 9950 nM
12,B12,> 9950 nM
13,B13,> 9950 nM
14,B14,> 9950 nM
15,B15,> 9950 nM
